The values that follow come from patent publication US6727084B1, “Cold-active beta-galactosidase, the process for its preparation and the use thereof” (Universite de Liege, priority 1999, dated 2004).

Substrate in this data set: OC[C@H]1O[C@@H](O[C@H]2[C@H](O)[C@@H](O)C(O)O[C@@H]2CO)[C@H](O)[C@@H](O)[C@H]1O
Put plainly: kinetics of LMG P-19143 β-galactosidase with lactose as substrate (galactose dehydrogenase assay). The data set is classed as biochemical, Pseudoalteromonas haloplanktis LMG P-19143. The following applies: other: lactose (1 mM to 50 mM) as substrate, 25° C., pH 7.3. From the text: The definition of enzyme activity units can be defined according to the substrate used with lactose as a substrate, the unit of activity is defined as the amount of enzyme which releases one micro-mole glucose in one minute under standard reaction conditions (temperature, pH). Another commonly used substrate is ortho-nitrophenyl-β-D galactopyranoside (ONPG) and in this case, the unit of activity is defined as the amount of enzyme which hydrolyses one micro-mole of ONPG in one minute under standard reaction conditions.
Km was also determined at 25° C. with lactose (1 mM to 50 mM) as a substrate.

B1: Pseudoalteromonas haloplanktis LMG P-19143 cold-active β-galactosidase (lac Z), native, SEQ ID NO: 2 (Pseudoalteromonas haloplanktis) (protein)
chain: MTSLQHIINRRDWENPITVQVNQVKAHSPLNGFKTIEDARENTQSQKKSLNGQWDFKLFDKPEAVDESLLYEKISKELSGDWQSITVPSNWQLHGFDKPIYCNVKYPFAVNPPFVPSDNPTGCYRTEFTITPEQLTQRNHIIFEGVNSAFHLWCNGQWVGYSQDSRLPSEFDLSELLVVGTNRIAVMVIRWSDGSYLEDQDMWWLSGIFRDVNLLTKPQSQIRDVFITPDLDACYRDATLHIKTAINAPNNYQVAVQIFDGKTSLCEPKIQSTNNKRVDEKGGWSDVVFQTIAIRSPKKWTAETPYLYRCVVSLLDEQGNTVDVEAYNIGFRKVEMLNGQLCVNGKPLLIRGVNRHEHHPENGHAVSTADMIEDIKLMKQNNFNAVRTAHYPNHPLFYELCDELGLYVVDEANIETHGMFPMGRLASDPLWAGAFMSRYTQMVERDKNHASIIIWSLGNECGHGANHDAMYGWSKSFDPSRPVQYEGGGANTTATDIICPMYSRVDTDIKDDAVPKYSIKKWLSLPGETRPLILCEYAHAMGNSLGSFDDYWQAFREYPRLQGGFIWDWVDQGLSKIDENGKHYWAYGGDFGDELNDRQFCINGLLFPDRTPHPSLFEAKYSQQHLQFTLREQNQNQNQNQYSIDVFSDYVFRHTDNEKLVWQLIQNGVCVEQGEMALNIAPQSTHTLTIKTKTAFEHGAQYYLNLDVALINDSHFANANHVMDSEQFKLINSNNLNSKSFASATEKSVISVNETDSHLSIENNTFKLVFNQQSGLIEQWLQDDTQVISSPLVDNFYRAPLDNDIGVSEVDNLDPNAWEARWSRAGIGQWQRTCSSINAVQSSVDVRITCVFNYEFNGVLQAQTQWLYTLNNTGTISLNVDVNLNDTLPPMPRIGLSTTINKQSDTKVNWLGLGPFENYPDRKSAARFGYYSLSLNELYTPYIFPTDNGLRSDCQLLSINNLIVTGAFLFAASEYSQNMLTQAKHTNELIADDCIHVHIDHQHMGVGGDDSWSPSTHKEYLLEQKNYNYSLTLTGGITT
notes: ORF of 1038 residues
For the protein B1, the Km came to 2400 µM.
